Results from US20230407326A1, “INDUCIBLE PROMOTER FOR VIRAL VECTOR PRODUCTION” (ASKLEPIOS BIOPHARMACEUTICAL, INC., priority 2020, published 2023).

What was measured:
HEK293-T cells = experiment: Luciferase expression in transiently transfected HEK293-T cells, normoxia vs 24 hrs hypoxia; type: cell-based, human
Method: HEK293-T are seeded at a density of 20%. Once they reached a confluence between 60 and 80%, the media is changed with DMEM (#21885-025—Thermo Scientific) supplemented with 10% FBS (Gibco, 26140). After 3 hours, the cells were transfected by a transfection mix. The transfection mix is prepared by adding DNA (2 μg per 6 well plate) and PEI 25 kDA (#23966-1-Polyscience) in a ratio of 1:3 in sterile DPBS (#14190169—ThermoFisher Scientific). After mixing, the transfection mix is incubated at room temperature for 30 minutes and then added directly to the cells. After 16 to 18 h post transfection, the media is changed to DMEM+2% FBS. […]
After transfection the cells were incubated for 24 hrs in normoxic conditions (20% oxygen). Induction of the promoters was assessed by using luciferase activity after 24 hrs in normoxia or hypoxia (5% oxygen, 10% carbon dioxide and 85% nitrogen). […]
(§1) Luciferase activity was measured using LARII (Dual Luciferase Reporter 1000 assay system, Promega, E1980).
Media was removed from the cells at the respective time point (0, 3, 5, 24 hrs after induction). […] 10 μl of supernatant was pipetted into white 96-well plate and luminescence measured by addition of 50 μl of LARII substrate.
β-galactosidase activity was measured as per manufacturer's instructions (Mammalian βGalactosidase Assay Kit, 75707/75710, Thermo Scientific) using 25 μl of lysate. […]

HEK293-F cells = experiment: Luciferase expression from hypoxia-inducible promoters in transiently transfected HEK293-F cells under hypoxia; type: cell-based, human; settings: hypoxia 5% oxygen, 3, 5 and 24 hrs
Method: 40 ml of cells were grown in a 250 ml vented Erlenmeyer flask (Sigma-Aldrich CLS431144) at 37° C., 20% O2, 8% CO2 with agitation at 100 rpm. Cells were seeded as described in the manufacturer's instructions (300,000 cells/ml). HEK293-F were obtained from Thermofisher, R79007.
(§2) One day before transfection, the cells were counted using a haemocytometer and split to 500,000 cells/ml.
On the day of transfection, the cells are seeded to 1,000,000 cells/ml in 500 μl of appropriate medium (Freestyle 293 expression medium, 12338002) in a 24 well plate. 0.625 μg of DNA per well was then added to 10 μl of OptiMem medium (Thermofisher; 11058021) and incubated for 5 minutes at room temperature. […]
After transfection the cells were incubated for 24 hrs in normoxia conditions (20% oxygen) before being switched to a gas mix of 5% oxygen, 10% carbon dioxide and 85% nitrogen (hypoxia). […] Induction of the promoters was assessed by using luciferase activity after 3, 5 and 24 hrs in hypoxia.
as §1
Media was removed from the cells at the respective time point (0, 3, 5, 24 hrs after induction). […] 10 μl of supernatant was pipetted into white 96-well plate and luminescence measured by addition of 50 μl of LARII substrate. […]

CHO-GS cells = experiment: Luciferase expression in transiently transfected CHO-GS suspension cells, normoxia vs 24 hrs hypoxia; type: cell-based, Chinese hamster; settings: CHO_GS suspension cell line
Method: 40 ml of cells were grown in a 250 ml vented Erlenmeyer flask (Sigma-Aldrich CLS431144) at 37° C., 20% O2, 8% CO2 with agitation at 100 rpm. Cells were seeded as at 300,000 cells/ml.
as §2
On the day of transfection, the cells are seeded to 1,000,000 cells/ml in 500 μl of appropriate medium (Thermofisher, CD-CHO 10743029) in a 24 well plate. 0.625 μg of DNA per well was then added to 10 μl of OptiMem medium (Thermofisher; 11058021) and incubated for 5 minutes at room temperature.
Concurrently, 0.625 μl of Freestyle Max reagent (Thermofisher, 16447100) was made up to 10 μl by addition of OptiMem and incubated for 5 minutes at room temperature. After this incubation, both mixes were added to the same tube and incubated at room temperature for 25-30 minutes. The DNA/Max reagent mix (20 μl/well) was then added directly to the cells and the cells incubated at 37° C., 8% CO2 with agitation at 100 rpm. […]
After transfection the cells were incubated for 24 hrs in normoxic conditions (20% oxygen). Induction of the promoters was assessed by using luciferase activity after 24 hrs in normoxia or hypoxia (5% oxygen, 10% carbon dioxide and 85% nitrogen). […] Luciferase activity was measured as described above.

B1: RTV-015: synthetic hypoxia-inducible promoter, five HRE1 and synthetic minimal promoter MP1, SEQ ID NO: 1 (nucleic acid)
DNA: ACGTGCGATGATGCGTAGCTAGTAGTGATGATGCGTAGCTAGTAGTACGTGCGATGATGCGTAGCTAGTAGTGATGATGCGTAGCTAGTAGTACGTGCGATGATGCGTAGCTAGTAGTGATGATGCGTAGCTAGTAGTACGTGCGATGATGCGTAGCTAGTAGTGATGATGCGTAGCTAGTAGTACGTGCTTGGTACCATCCGGGCCGGCCGCTTAAGCGACGCCTATAAAAAATAGGTTGCATGCTAGGCCTAGCGCTGCCAGTCCATCTTCGCTAGCCTGTGCTGCGTCAGTCCAGCGCTGCGCTGCGTAACGGCCGCC
HEK293-T cells
  luciferase expression in normoxia and after 24 hours in hypoxia: almost no luciferase activity in normoxia but is induced after 24 hours in hypoxia
HEK293-F cells
  promoter activity (luciferase) relative to the other promoters: weakest
CHO-GS cells
  luciferase expression in normoxia and after 24 hours in hypoxia: almost no luciferase activity in normoxia but is induced after 24 hours in hypoxia
